Test [1] concerns the target T1, CA6, tumor-associated MUC1-sialoglycotope (human, UniProt P15941 24-1255, carries the CA6 sialoglycotope (sialylated glycan epitope); sites not stated). The experiment in a line: method not given; presumably flow cytometry on WISH (CA6+) cells as for the B-Fabs.
The target in test [2] is T1, CA6, tumor-associated …. The experiment in a line: flow cytometry (FACS) on WISH cells (CA6+). For orientation: In flow cytometry, cells or beads pass a laser one at a time.
Test [3] addresses T1, CA6, tumor-associated …. Kind of test: flow cytometry (FACS) on WISH cells (CA6+). The source holds these as a separate data set.
Test [4] addresses T1, CA6, tumor-associated …. The experiment in a line: flow cytometry (FACS) on WISH cells (CA6+). This is another data set of the same source.

Like-named read-outs stand apart in the source and are kept apart here.

Here are results for one molecule from patent publication US20140256916A1 (Sanofi, published 2014).

T1 sequence (P15941 24-1097, chain 1 of 2): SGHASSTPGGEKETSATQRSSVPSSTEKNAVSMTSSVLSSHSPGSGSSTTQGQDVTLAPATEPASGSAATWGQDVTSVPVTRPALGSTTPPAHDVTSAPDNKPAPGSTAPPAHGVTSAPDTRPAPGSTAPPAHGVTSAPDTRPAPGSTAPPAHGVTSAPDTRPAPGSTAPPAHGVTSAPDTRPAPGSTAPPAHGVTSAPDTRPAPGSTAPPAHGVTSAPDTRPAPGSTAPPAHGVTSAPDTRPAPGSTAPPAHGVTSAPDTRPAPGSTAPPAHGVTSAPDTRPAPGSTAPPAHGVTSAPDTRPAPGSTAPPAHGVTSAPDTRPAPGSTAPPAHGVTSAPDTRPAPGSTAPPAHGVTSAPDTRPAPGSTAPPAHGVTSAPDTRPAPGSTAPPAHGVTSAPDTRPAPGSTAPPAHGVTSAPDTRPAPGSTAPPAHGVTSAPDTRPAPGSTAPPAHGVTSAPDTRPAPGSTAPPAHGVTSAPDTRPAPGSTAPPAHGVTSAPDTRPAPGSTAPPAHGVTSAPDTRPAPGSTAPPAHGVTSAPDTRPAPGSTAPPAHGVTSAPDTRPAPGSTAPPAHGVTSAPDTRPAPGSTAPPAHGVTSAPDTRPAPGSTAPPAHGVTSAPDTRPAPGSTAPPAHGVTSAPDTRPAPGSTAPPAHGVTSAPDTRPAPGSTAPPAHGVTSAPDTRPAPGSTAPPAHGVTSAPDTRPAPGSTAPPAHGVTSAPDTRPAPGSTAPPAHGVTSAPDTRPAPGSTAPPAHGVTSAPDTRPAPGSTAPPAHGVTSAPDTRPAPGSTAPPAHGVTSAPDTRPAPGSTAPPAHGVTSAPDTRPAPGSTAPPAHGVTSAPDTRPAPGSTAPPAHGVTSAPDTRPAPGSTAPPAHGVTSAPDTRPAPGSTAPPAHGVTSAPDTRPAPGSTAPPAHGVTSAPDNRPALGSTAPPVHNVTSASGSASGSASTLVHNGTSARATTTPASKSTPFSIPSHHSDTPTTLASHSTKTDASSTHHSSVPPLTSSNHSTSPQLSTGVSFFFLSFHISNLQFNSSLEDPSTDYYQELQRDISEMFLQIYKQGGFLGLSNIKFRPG
T1 sequence (P15941 1098-1255, chain 2 of 2): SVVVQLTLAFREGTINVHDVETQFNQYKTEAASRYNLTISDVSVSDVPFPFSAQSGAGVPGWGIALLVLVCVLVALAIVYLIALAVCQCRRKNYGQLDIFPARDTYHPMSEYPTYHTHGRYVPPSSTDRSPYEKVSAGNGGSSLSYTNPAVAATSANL

B1: Control DS6 monoclonal antibody (antibody, V domains shown)
VH: EAQLVQSGAEVVKPGASVKMSCKASGYTFTSYNMHWVKQTPGQGLEWIGYIYPGNGATNYNQKFQGKATLTADPSSSTAYMQISSLTSEDSAVYFCARGDSVPFAYWGQGTLVTVSA
VL: EIVLTQSPATMSASPGERVTITCSAHSSVSFMHWFQQKPGTSPKLWIYSTSSLASGVPARFGGSGSGTSYSLTISSMEAEDAATYYCQQRSSFPLTFGAGTKLELK
As a reminder, the Kd is a measure of binding affinity in units of concentration. Low values mean tighter binding, high ones weaker binding. Usually EC50 (read off the curve) stands for the concentration giving half of the maximal effect. A higher EC50 (read off the curve) goes with weaker potency. The molecule B1 came in with a Kd in test [1] of 2 nM. Besides, the “EC50 (read off the curve)” value in test [2], in test [3] and in test [4] was approximately 2 nM each time.
